Data from patent US20120128758A1.

Molecular target: mAb 2F5
Assay: cell-based or functional assay

Binder: QQEKNEQELLELDKWASLWN (modifications not checked) [SP62 peptide (gp41 652-671), …]
- IC50 of 2F5 mAb against TND-669S pseudovirus after pre-absorption with 0.3 µM peptide: 0.911 µg/mL
